Reference: patent US20060110789

Tests used:
[1] = biological target: T1, diketide-ACP4(4) (DEBS ACP4 with its natural C-terminal linker, loaded with diketide), Q03132
T1 chain: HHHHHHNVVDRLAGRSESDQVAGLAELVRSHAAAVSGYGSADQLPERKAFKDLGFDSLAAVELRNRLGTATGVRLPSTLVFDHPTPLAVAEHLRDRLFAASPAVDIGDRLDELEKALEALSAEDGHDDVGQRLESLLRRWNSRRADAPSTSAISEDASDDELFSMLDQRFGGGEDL

[2] = biological target: T2, diketide-ACP2(2) (DEBS ACP2 with its natural C-terminal linker, loaded with diketide), Q03131
T2 chain: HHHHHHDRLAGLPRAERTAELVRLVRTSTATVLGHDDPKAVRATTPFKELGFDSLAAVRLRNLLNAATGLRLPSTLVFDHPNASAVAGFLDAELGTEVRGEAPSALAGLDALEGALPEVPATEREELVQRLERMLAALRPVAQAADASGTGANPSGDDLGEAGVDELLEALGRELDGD

[3] = biological target: T3, diketide-ACP2(4) (DEBS ACP2 with the C-terminal linker of module 4, loaded with diketide), Q03131
T3 chain: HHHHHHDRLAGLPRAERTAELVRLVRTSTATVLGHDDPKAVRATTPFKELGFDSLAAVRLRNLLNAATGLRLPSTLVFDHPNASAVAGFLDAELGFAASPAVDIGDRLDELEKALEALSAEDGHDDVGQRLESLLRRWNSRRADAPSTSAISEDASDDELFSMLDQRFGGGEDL

B1: M3+TE (module 3 of DEBS with its own N-terminal linker, fused to thioesterase) (protein)
chain: VTDSEKVAEYLRRATLDLRAARQRIRELESIAIVSMACRLPGGVNTPQRLWELLREGGETLSGFPTDRGWDLARLHHPDPDNPGTSYVDKGGFLDDAAGFDAEFFGVSPREAAAMDPQQRLLLETSWELVENAGIDPHSLRGTATGVFLGVAKFGYGEDTAAAEDVEGYSVTGVAPAVASGRISYTMGLEGPSISVDTACSSSLVALHLAVESLRKGESSMAVVGGAAVMATPGVFVDFSRQRALAADGRSKAFGAGADGFGFSEGVTLVLLERLSEARRNGHEVLAVVRGSALNQDGASNGLSAPSGPAQRRVIRQALESCGLEPGDVDAVEAHGTGTALGDPIEANALLDTYGRDRDADRPLWLGSVKSNIGHTQAAAGVTGLLKVVLALRNGELPATLHVEEPTPHVDWSSGGVALLAGNQPWRRGERTRRARVSAFGISGTNAHVIVEEAPEREHRETTAHDGRPVPLVVSARTTAALRAQAAQIAELLERPDADLAGVGLGLATTRARHEHRAAVVASTREEAVRGLREIAAGAATADAVVEGVTEVDGRNVVFLFPGQGSQWAGMGAELLSSSPVFAGKIRACDESMAPMQDWKVSDVLRQAPGAPGLDRVDVVQPVLFAVMVSLAELWRSYGVEPAAVVGHSQGEIAAAHVAGALTLEDAAKLVVGRSRLMRSLSGEGGMAAVALGEAAVRERLRPWQDRLSVAAVNGPRSVVVSGEPGALRAFSEDCAAEGIRVRDIDVDYASHSPQIERVREELLETTGDIAPRPARVTFHSTVESRSMDGTELDARYWYRNLRETVRFADAVTRLAESGYDAFIEVSPHPVVVQAVEEAVEEADGAEDAVVVGSLHRDGGDLSAFLRSMATAHVSGVDIRWDVALPGAAPFALPTYPFQRKRYWLQPAAPAAASDELAYRVSWTPIEKPESGNLDGDWLVVTPLISPEWTEMLCEAINANGGRALRCEVDTSASRTEMAQAVAQAGTGFRGVLSLLSSDESACRPGVPAGAVGLLTLVQALGDAGVDAPVWCLTQGAVRTPADDDLARPAQTTAHGFAQVAGLELPGRWGGVVDLPESVDDAALRLLVAVLRGGGRAEDHLAVRDGRLHGRRVVRASLPQSGSRSWTPHGTVLVTGAASPVGDQLVRWLADRGAERLVLAGACPGDDLLAAVEEAGASAVVCAQDAAALREALGDEPVTALVHAGTLTNFGSISEVAPEEFAETIAAKTALLAVLDEVLGDRAVEREVYCSSVAGIWGGAGMAAYAAGSAYLDALAEHHRARGRSCTSVAWTPWALPGGAVDDGYLRERGLRSLSADRAMRTWERVLAAGPVSVAVADVDWPVLSEGFAATRPTALFAELAGRGGQAEAEPDSGPTGEPAQRLAGLSPDEQQENLLELVANAVAEVLGHESAAEINVRRAFSELGLDSLNAMALRKRLSASTGLRLPASLVFDHPTVTALAQHLRICCAGTAAISGPHEFTRLAGALRGIAPVRAVPQPGYEEGEPLPSSMAAVAAVQADAVIRTQGDKPFVVAGHSAGALMAYALATELLDRGHPPRGVVLIDVYPPGHQDAMNAWLEELTATLFDRETVRMDDTRLTALGAYDRLTGQWRPRETGLPTLLVSAGEPMGPWPDDSWKPTWPFEHDTVAVPGDHFTMVQEHADAIARHIDAWHHHHHH
triketide lactone formation at 20 µM substrate (FIG. 27 D) [1]: no product was detected at the same substrate concentrations
k60 µM (overall rate of product formation at 60 µM substrate) [2]: 1.4 min-
kcat/KM [2]: 6500 M⁻¹ s⁻¹
triketide lactone formation at 20 µM substrate (FIG. 27 A) [2]: transfer of diketide from the donor ACP to the acceptor module occurred at 20 µM substrate concentration
kcat/KM, fold decrease against the matched reaction (FIG. 27 B) [3]: fell approximately 3-5 fold and 80-200 fold, respectively
triketide lactone formation at 20 µM substrate (FIG. 27 B) [3]: transfer of diketide from the donor ACP to the acceptor module occurred at 20 µM substrate concentration
